This experiment concerns the target Human mitochondrial LysRS with a C-terminal HA-tag (human) (UniProt Q15046). In words: AlphaScreen or HTRF. On the technique in general: In Alpha technology, singlet oxygen from a donor bead excites a nearby acceptor bead.

In paper PMC7589778 one finds Kd data, which are given here for two substances.

For orientation: Kd means the concentration at which binding is half-saturated. “Integrase from HIV-2_TRA with a C-terminal His-tag (enzyme)” gave a Kd of 3.5 nM.

“Integrase from HIV-2_ALL with a C-terminal His-tag (enzyme)” displayed an equilibrium dissociation constant (Kd) of 2.4 nM.
